Like-named read-outs stand apart in the source and are kept apart here.
Legend:
Assay in all cases: stopped-flow fluorescence
[1] = biological target: T1, Cdc42 GTPase (residues 1-179), loaded with mantGppNHp (human, UniProt P60953 1-179)
[2] = biological target: T1, Cdc42 GTPase (residues 1-179), loaded …; remark: listed apart in the source
[3] = biological target: T1, Cdc42 GTPase (residues 1-179), loaded …; remark: listed apart in the source
[4] = biological target: T1, Cdc42 GTPase (residues 1-179), loaded …; remark: listed apart in the source
[5] = biological target: T1, Cdc42 GTPase (residues 1-179), loaded …; remark: listed apart in the source

T1 sequence (P60953 1-179): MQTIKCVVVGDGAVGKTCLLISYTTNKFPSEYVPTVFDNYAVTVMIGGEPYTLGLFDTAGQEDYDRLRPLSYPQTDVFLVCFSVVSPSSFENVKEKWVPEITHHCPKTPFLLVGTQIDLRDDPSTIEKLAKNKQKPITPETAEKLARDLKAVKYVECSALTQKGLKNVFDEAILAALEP

kon [1]: 1.75e+07 M⁻¹ s⁻¹
fold decrease of ka at 2 M urea against no urea [2]: 3.4 fold
kon [3]: 1.63e+07 M⁻¹ s⁻¹
koff [4]: 4.1 ± 1.7 s⁻¹
kon [4]: 1.2e+07 M⁻¹ s⁻¹
kon [5]: 2.07e+07 M⁻¹ s⁻¹
B1: Wiskott-Aldrich Syndrome protein (WASP) GTPase binding domain (GBD) construct, residues 154-322 (domain or fragment, human, UniProt P42768 154-322, looked up)
chain: GDRRQLPPPPTPANEERRGGLPPLPLHPGGDQGGPPVGPLSLGLATVDIQNPDITSSRYRGLPAPGPSPADKKRSGKKKISKADIGAPSGFKHVSHVGWDPQNGFDVNNLDPDLRSLFSRAGISEAQLTDAETSKLIYDFIEDQGGLEAVRQEMRRQEPLPPPPPPSRG

Source: PMC5643242 (The FEBS journal, 2017)
